Assay results published in US20050234221A1.

Target: IL-17 receptor like polypeptide on human B-lymphoblast cell line GM3104A (human) (UniProt Q9NRM6)
Assay: cell-based or functional assay

recombinant human IL-17E-Fc fusion protein, sequence (chain): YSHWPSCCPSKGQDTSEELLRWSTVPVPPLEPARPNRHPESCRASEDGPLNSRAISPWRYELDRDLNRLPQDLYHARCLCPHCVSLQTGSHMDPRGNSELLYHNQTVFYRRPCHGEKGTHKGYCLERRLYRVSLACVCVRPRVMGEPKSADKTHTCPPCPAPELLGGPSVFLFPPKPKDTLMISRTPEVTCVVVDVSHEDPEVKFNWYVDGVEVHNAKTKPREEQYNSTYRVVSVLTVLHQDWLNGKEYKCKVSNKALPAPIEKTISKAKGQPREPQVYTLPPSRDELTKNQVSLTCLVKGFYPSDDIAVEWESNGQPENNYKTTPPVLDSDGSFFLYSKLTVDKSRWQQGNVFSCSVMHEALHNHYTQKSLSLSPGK

- IL-1α (pg/ml) released by GM3104A cells: 25 pg/mL
- IL-6 (pg/ml) released by GM3104A cells: 362 pg/mL
- TNF-α (pg/ml) released by GM3104A cells: 460 pg/mL
Substance: recombinant human IL-17E-Fc fusion protein
